From patent US20190055293

System: insulin

Substance	insulin disulfide reductase activity (turbidity, optical density at A595 nm)
purified RdCVF(LF) protein (human rod-derived cone viability factor, long form)	The addition of RdCVF (LF) or Trx1 resulted in an increase in optical density at A595 nm
Thioredoxin protein	The addition of RdCVF (LF) or Trx1 resulted in an increase in optical density at A595 nm
